Measured values taken from patent publication US20260217833A1 (APTEVO RESEARCH AND DEVELOPMENT, published 2026).

B1: CD4001079 (bispecific antibody)
Fc-Knob x CD40_2H7: EPKSSDKTHTCPPCPAPPAAAPSVFLFPPKPKDTLMISRTPEVTCVVVDVSHEDPEVKFNWYVDGVEVHNAKTKPREEQYNSTYRVVSVLTVLHQDWLNGKEYKCAVSNKALPAPIEKTISKAKGQPREPQVYTLPPSRDELTKNQVSLWCLVKGFYPSDIAVEWESNGQPENNYKTTPPVLDSDGSFFLYSKLTVDKSRWQQGNVFSCSVMHEALHNHYTQKSLSLSPGGGGSPSDIVMTQSHKFMSTSVGDRVSITCKASQDVNTAVAWYQQKPGQSPKLLIYSASYRYTGVPDRFTGSGSGTDFTFTISSVQAEDLAVYYCQQHYSTPWTFGGGTKLEIKGGGGSGGGGSGGGGSGGGGSQVQLQQSGAELAKPGASVKMSCKASGYAFTTYWMHWVKQRPGQGLEWIGYINPTTGYTDYNQKFKDKATLTADKSSSTAYMQLSSLTSEDSAVYYCARWGLPPFAYWGQGTLVTVSA
PDL_5F9 x Fc-Hole x CD40_2H7: EVQLVESGGGLVKPGGSLRLSCAASGFTFSDYGMAWVRQAPGKGLEWVAFITSLAYIIYYADSVKGRFTISRDNAKNSLYLQMNSLRAEDTAVYYCARNYGSSPYYFDYWGQGTLVTVSSGGGGSGGGGSGGGGSGGGGSDIQMTQSPSSLSASVGDRVTITCRASQDINKFLSWYQQKPGKAPKLLIHYTSSLQPGVPSRFSGSGSGTDFTLTISSLQPEDFATYYCLQYDNLYTFGQGTKLEIKEPKSSDKTHTCPPCPAPPAAAPSVFLFPPKPKDTLMISRTPEVTCVVVDVSHEDPEVKFNWYVDGVEVHNAKTKPREEQYNSTYRVVSVLTVLHQDWLNGKEYKCAVSNKALPAPIEKTISKAKGQPREPQVYTLPPSRDELTKNQVSLSCAVKGFYPSDIAVEWESNGQPENNYKTTPPVLDSDGSFFLVSKLTVDKSRWQQGNVFSCSVMHEALHNRFTQKSLSLSPGGGGSPSDIVMTQSHKFMSTSVGDRVSITCKASQDVNTAVAWYQQKPGQSPKLLIYSASYRYTGVPDRFTGSGSGTDFTFTISSVQAEDLAVYYCQQHYSTPWTFGGGTKLEIKGGGGSGGGGSGGGGSGGGGSQVQLQQSGAELAKPGASVKMSCKASGYAFTTYWMHWVKQRPGQGLEWIGYINPTTGYTDYNQKFKDKATLTADKSSSTAYMQLSSLTSEDSAVYYCARWGLPPFAYWGQGTLVTVSA
B2: CD4001047 (bispecific antibody)
scFv-Fc-scFv chain: DIVMTQSHKFMSTSVGDRVSITCKASQDVNTAVAWYQQKPGQSPKLLIYSASYRYTGVPDRFTGSGSGTDFTFTISSVQAEDLAVYYCQQHYSTPWTFGGGTKLEIKGGGGSGGGGSGGGGSGGGGSQVQLQQSGAELAKPGASVKMSCKASGYAFTTYWMHWVKQRPGQGLEWIGYINPTTGYTDYNQKFKDKATLTADKSSSTAYMQLSSLTSEDSAVYYCARWGLPPFAYWGQGTLVTVSAEPKSSDKTHTCPPCPAPPAAAPSVFLFPPKPKDTLMISRTPEVTCVVVDVSHEDPEVKFNWYVDGVEVHNAKTKPREEQYNSTYRVVSVLTVLHQDWLNGKEYKCAVSNKALPAPIEKTISKAKGQPREPQVYTLPPSRDELTKNQVSLTCLVKGFYPSDIAVEWESNGQPENNYKTTPPVLDSDGSFFLYSKLTVDKSRWQQGNVFSCSVMHEALHNHYTQKSLSLSPGGGGSPSEVQLVESGGGLVKPGGSLRLSCAASGFTFSDYGMAWVRQAPGKGLEWVAFITSLAYIIYYADSVKGRFTISRDNAKNSLYLQMNSLRAEDTAVYYCARNYGSSPYYFDYWGQGTLVTVSSGGGGSGGGGSGGGGSGGGGSDIQMTQSPSSLSASVGDRVTITCRASQDINKFLSWYQQKPGKAPKLLIHYTSSLQPGVPSRFSGSGSGTDFTLTISSLQPEDFATYYCLQYDNLYTFGQGTKLEIK
notes: also called CD40_2H7 x hFc x PDL_5F9
B3: CD4001070 (bispecific antibody)
Fc-Knob x PDL_5F9: EPKSSDKTHTCPPCPAPPAAAPSVFLFPPKPKDTLMISRTPEVTCVVVDVSHEDPEVKFNWYVDGVEVHNAKTKPREEQYNSTYRVVSVLTVLHQDWLNGKEYKCAVSNKALPAPIEKTISKAKGQPREPQVYTLPPSRDELTKNQVSLWCLVKGFYPSDIAVEWESNGQPENNYKTTPPVLDSDGSFFLYSKLTVDKSRWQQGNVFSCSVMHEALHNHYTQKSLSLSPGGGGSPSEVQLVESGGGLVKPGGSLRLSCAASGFTFSDYGMAWVRQAPGKGLEWVAFITSLAYIIYYADSVKGRFTISRDNAKNSLYLQMNSLRAEDTAVYYCARNYGSSPYYFDYWGQGTLVTVSSGGGGSGGGGSGGGGSGGGGSDIQMTQSPSSLSASVGDRVTITCRASQDINKFLSWYQQKPGKAPKLLIHYTSSLQPGVPSRFSGSGSGTDFTLTISSLQPEDFATYYCLQYDNLYTFGQGTKLEIK
CD40_2H7 x Fc-Hole x PDL_5F9: DIVMTQSHKFMSTSVGDRVSITCKASQDVNTAVAWYQQKPGQSPKLLIYSASYRYTGVPDRFTGSGSGTDFTFTISSVQAEDLAVYYCQQHYSTPWTFGGGTKLEIKGGGGSGGGGSGGGGSGGGGSQVQLQQSGAELAKPGASVKMSCKASGYAFTTYWMHWVKQRPGQGLEWIGYINPTTGYTDYNQKFKDKATLTADKSSSTAYMQLSSLTSEDSAVYYCARWGLPPFAYWGQGTLVTVSAEPKSSDKTHTCPPCPAPPAAAPSVFLFPPKPKDTLMISRTPEVTCVVVDVSHEDPEVKFNWYVDGVEVHNAKTKPREEQYNSTYRVVSVLTVLHQDWLNGKEYKCAVSNKALPAPIEKTISKAKGQPREPQVYTLPPSRDELTKNQVSLSCAVKGFYPSDIAVEWESNGQPENNYKTTPPVLDSDGSFFLVSKLTVDKSRWQQGNVFSCSVMHEALHNRFTQKSLSLSPGGGGSPSEVQLVESGGGLVKPGGSLRLSCAASGFTFSDYGMAWVRQAPGKGLEWVAFITSLAYIIYYADSVKGRFTISRDNAKNSLYLQMNSLRAEDTAVYYCARNYGSSPYYFDYWGQGTLVTVSSGGGGSGGGGSGGGGSGGGGSDIQMTQSPSSLSASVGDRVTITCRASQDINKFLSWYQQKPGKAPKLLIHYTSSLQPGVPSRFSGSGSGTDFTLTISSLQPEDFATYYCLQYDNLYTFGQGTKLEIK
B4: CD4001205 (Fc fusion)
scFv: DIQMTQSPSSVSASVGDRVTITCRSSQSLLFSVNQKNYLAWYQQKPGKAPKLLIYWASTRESGVPDRFSGSGSGTDFTLTISSLQPEDFATYYCQHYYSYPWTFGQGTKVEIKGGGGSGGGGSGGGGSGGGGSQVQLVQSGAEVKKPGSSVKVSCKASGYTFSTSWISWVRQAPGQGLEWMGGILPGSGSTNYNEKFKGKVTITADESTSTAYMELSSLRSEDTAVYYCARGDDGSYVRWYFDHWGQGTLVTVSS
notes: humanized 1D5 variant; not shown: wildtype human IgG1 Fc and its linker to the scFv
B5: CD4001207 (Fc fusion)
scFv: DIQMTQSPSSVSASVGDRVTITCRSSQSLLFSVNQKNYLAWYQQKPGKAPKLLIYWASTRESGVPDRFSGSGSGTDFTLTISSLQPEDFATYYCQHYYSYPWTFGQGTKVEIKGGGGSGGGGSGGGGSGGGGSQVQLVQSGAEVKKPGSSVKVSCKASGYTFSTSWIEWIRQAPGQGLEWMGSILPGSGSTNYAEKFKGKVTITADESTSTAYMELSSLRSEDTAVYYCARGDDGSYVRWYFDHWGQGTLVTVSS
notes: as for B4
B6: CD4001206 (Fc fusion)
scFv: DIQMTQSPSSVSASVGDRVTITCRSSQSLLFSVNQKNYLAWYQQKPGKAPKLLIYWASTRESGVPDRFSGSGSGTDFTLTISSLQPEDFATYYCQHYYSYPWTFGQGTKVEIKGGGGSGGGGSGGGGSGGGGSQVQLVQSGAEVKKPGSSVKVSCKASGYTFSTSWIEWIRQAPGQGLEWMGSILPGSGSTNYAQKFQGRVTITADTSTSTAYMELSSLRSEDTAVYYCARGDDGSYVRWYFDHWGQGTLVTVSS
notes: as for B4

Target: T1, Human PD-L1 full-length (human, UniProt Q9NZQ7 19-290)
T1 construct: also called PDL01021; CHOK1SV/huPDL1
Test: flow cytometry, CHOK1SV/human PD-L1 cells

T1 sequence (Q9NZQ7 19-290): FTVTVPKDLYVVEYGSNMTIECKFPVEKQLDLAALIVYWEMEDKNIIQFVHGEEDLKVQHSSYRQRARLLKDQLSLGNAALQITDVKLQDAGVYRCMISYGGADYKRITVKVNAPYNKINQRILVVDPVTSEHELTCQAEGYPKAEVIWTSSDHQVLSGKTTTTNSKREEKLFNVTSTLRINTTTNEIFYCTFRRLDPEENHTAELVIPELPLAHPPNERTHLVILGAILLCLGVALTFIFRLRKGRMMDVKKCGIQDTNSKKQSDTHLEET

Binding result, binds:
B1, B2, B3

Target: T2, human CD40 full-length (human, UniProt P25942 21-277)
T2 construct: Also used for CD40 of Daudi cells, of CD40-expressing HEK293 cells and of the BPS CD40/NFkB HEK293 reporter cells where the row says so; also called CD4001012; CHOK1SV/CD40
Test: flow cytometry, CHOK1SV/human CD40 cells

T2 sequence (P25942 21-277): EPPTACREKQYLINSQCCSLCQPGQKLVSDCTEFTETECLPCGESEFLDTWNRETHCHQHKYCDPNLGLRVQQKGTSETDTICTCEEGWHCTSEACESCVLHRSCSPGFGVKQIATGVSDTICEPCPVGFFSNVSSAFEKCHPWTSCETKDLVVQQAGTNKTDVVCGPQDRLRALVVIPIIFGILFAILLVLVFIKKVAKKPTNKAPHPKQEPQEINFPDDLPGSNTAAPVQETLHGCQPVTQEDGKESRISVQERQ

Binding result, binds:
B4, B5, B6
